Reference: patent US20230256114A1, “NOVEL MAYTANSINOIDS AS ADC PAYLOADS AND THEIR USE FOR THE TREATMENT OF CANCER” (priority 2020, published 2023)

Legend:
[1] = Size exclusion chromatography (SEC) of ADC monomer and aggregates; assay type: physicochemical; conditions: anti-Trop-2 ADC with the named payload, Lysine conjugation, DAR 3.9
[2] = as above; assay type: physicochemical; conditions: for Aggregation rate (%): anti-Trop-2 ADC with the named payload, Cysteine conjugation
Description: Some embodiments of the invention relate to DM1s linked to antibodies via a non-cleavable linker. In this example, anti-Trop-2 antibody was reduced by adding antibody to TCEP (Tris (2-carboxyethyl) phosphine) dissolved in a pH-adjusted PBS EDTA buffer. The antibody/TCEP solution was incubated at 37° C. for 2-3 hrs. The reduced antibodies were buffer exchanged into conjugation reaction buffer. The BI-P203 payload dissolved in DMSO was added to a solution of reduced anti-Trop-2 monoclonal antibody at payload/antibody ratio of 7-30:1 in order to achieve different drug to antibody ratios (DARs). The payload/antibody solution was incubated for 1-2 hr at 20° C. while the reduced antibody was conjugated to BI-P203 payload via the maleimide group. After conjugation was completed, the reaction mixture was desalted and concentrated to yield anti-Trop-2-DM1 ADCs. The biochemical properties of the resulting ADCs were characterized using size-exclusion chromatography high pressure liquid chromatography (SEC-HPLC) to determine purity and aggregation content, and by using hydrophobic interaction chromatography HPLC (HIC-HPLC) to confirm drug loading (DAR). The conjugation procedure is illustrated in FIG. 12. The final ADC products are comprised of four or six or seven DM1-linker molecules. The cysteine conjugation method used in the conjugation process produces more homogenous ADCs compared to lysine conjugation method.

[3] = system: MDA-MB-468 breast cancer cells; test: In vitro cytotoxicity assay (Cell Counting Kit-8, 72 hours); assay type: cell-based, human; conditions: FIG. 21
Description: Anti-Trop-2 ADCs were conjugated with different DM1 derivatives with similar DARs, and were tested ahead to ahead with anti-Trop-2-SMCC-DM1 and anti-Trop-2-vc-MMAE against BxPC-3 pancreatic cancer cells representing high Trop-2 expression, MDA-MB-468 breast cancer cells, N87 gastric cancer cells, and SK-BR-3 […] cancer cells representing moderate Trop-2 expression, Colo205 colon cancer cells representing low Trop-2 expression, and A549 lung cancer cells and MDA-MB-231 breast cancer cells with undetectable level of Trop-2. In vitro cytotoxicity assay was performed. Briefly, all cell lines were cultured in a suitable culture medium at 37° C. in a humidified incubator atmosphere of 5% CO2. Cells were plated in 96-well flat bottom plates. Cell seeding number ranged from 500 cells//100 ul/well to 6,000 cells/100 μl/well. Cells were allowed to adhere overnight at 37° C. in a humidified atmosphere of 5% CO2. ADCs were prepared from stock solution and diluted into appropriated working concentration 24 hours after cell seeding. […] Cell Counting Kit-8 solution (Dojindo China Co., Ltd, lot #PL701) was added to the wells for 1-4 hours at 37° C. and the absorbance at 450 nm was measured using a Microplate Reader (SpectraMax M5, Molecular Devices) and SoftMax Pro5.4.1 software. Dose-response curves were generated and IC50 was calculated using GraphPad Prism 7 three-parameter curve fitting.

[4] = Solubility of payloads and ADCs (comparison in words); conditions: inferred from Table 2
Description: The lipophilicity and aggregation rate of the ADCs of the present invention were characterized. The most commonly used measure of lipophilicity is LogP, which is the partition coefficient of a molecule between aqueous and lipophilic phases, usually octanol and water. […] In this experiment, the LogP of anti-Trop-2 BI-P203 and anti-Trop-2-SMCC-DM1 was calculated using ChemDraw software. Size exclusion chromatography (SEC) was used to characterize the ADC monomer and their aggregates.

SMILES | Aggregation rate (%) [1] [%] | aggregation rate compared to SMCC-DM1 payload ([2]; ADCs of the payloads) | Aggregation rate (%) ([2]; DAR 3.5) | Aggregation rate (%) ([2]; DAR 6.2) | Aggregation rate (%) ([2]; DAR 7.0) | in vitro activity of the free payload compared with free SMCC-DM1 payload [3] | solubility of payload compared to SMCC-DM1 payload [4]
COc1cc2cc(c1Cl)N(C)C(=O)C[C@H](OC(=O)[C@H](C)N(C)C(=O)CCSC1CC(=O)N(CC3CCC(C(=O)ON4C(=O)CCC4=O)CC3)C1=O)[C@]1(C)O[C@H]1[C@H](C)[C@@H]1C[C@@](O)(NC(=O)O1)[C@H](OC)/C=C/C=C(\C)C2 (stereo partly shown) [SMCC-DM1] | 3.6 |  |  |  |  |  | 
COc1cc2cc(c1Cl)N(C)C(=O)C[C@H](OC(=O)[C@H](C)N(C)C(=O)CCOCCn1cc(COCCOCCOCCOCCNC(=O)CCN3C(=O)C=CC3=O)nn1)[C@@]1(C)O[C@H]1[C@H](C)[C@@H]1C[C@@](O)(NC(=O)O1)C(OC)/C=C/C=C(\C)C2 (stereo partly shown) [BI-P203] |  | decreased aggregation rate | 0.33 | 1.0 | 2.0 | less activity than that of free SCMM-DM1 payload | increased solubility
